The values that follow come from PMC9938168, “Structural basis for clearing of ribosome collisions by the RQT complex” (Nature Communications, 2023).

Common to all, as to conditions: both partners purified
For experiment [1], the target named is T1, Ski2-like helicase 1 (Slh1), subunit of the RQT complex, wild type (yeast, UniProt P53327 1-1967).
T1 construct: Slh1 (Rqt2), ATP-dependent Ski2-like RNA helicase of yeast RQT, 1967 amino acids; NTC residues 217-1122 and CTC residues 1123-1967 modelled, N-terminal domain 1-217 not visible; Co-purified with Cue3 and Rqt4 as the trimeric RQT complex; Eluted by TEV cleavage of the FTP tag; also called Rqt2; Slh1-FTP; source: yeast strain overexpressing RQT components (Slh1-FTP, Cue3, Rqt4), purified …
T1 sequence (P53327 whole entry, the tested form may be a part, one chain of several): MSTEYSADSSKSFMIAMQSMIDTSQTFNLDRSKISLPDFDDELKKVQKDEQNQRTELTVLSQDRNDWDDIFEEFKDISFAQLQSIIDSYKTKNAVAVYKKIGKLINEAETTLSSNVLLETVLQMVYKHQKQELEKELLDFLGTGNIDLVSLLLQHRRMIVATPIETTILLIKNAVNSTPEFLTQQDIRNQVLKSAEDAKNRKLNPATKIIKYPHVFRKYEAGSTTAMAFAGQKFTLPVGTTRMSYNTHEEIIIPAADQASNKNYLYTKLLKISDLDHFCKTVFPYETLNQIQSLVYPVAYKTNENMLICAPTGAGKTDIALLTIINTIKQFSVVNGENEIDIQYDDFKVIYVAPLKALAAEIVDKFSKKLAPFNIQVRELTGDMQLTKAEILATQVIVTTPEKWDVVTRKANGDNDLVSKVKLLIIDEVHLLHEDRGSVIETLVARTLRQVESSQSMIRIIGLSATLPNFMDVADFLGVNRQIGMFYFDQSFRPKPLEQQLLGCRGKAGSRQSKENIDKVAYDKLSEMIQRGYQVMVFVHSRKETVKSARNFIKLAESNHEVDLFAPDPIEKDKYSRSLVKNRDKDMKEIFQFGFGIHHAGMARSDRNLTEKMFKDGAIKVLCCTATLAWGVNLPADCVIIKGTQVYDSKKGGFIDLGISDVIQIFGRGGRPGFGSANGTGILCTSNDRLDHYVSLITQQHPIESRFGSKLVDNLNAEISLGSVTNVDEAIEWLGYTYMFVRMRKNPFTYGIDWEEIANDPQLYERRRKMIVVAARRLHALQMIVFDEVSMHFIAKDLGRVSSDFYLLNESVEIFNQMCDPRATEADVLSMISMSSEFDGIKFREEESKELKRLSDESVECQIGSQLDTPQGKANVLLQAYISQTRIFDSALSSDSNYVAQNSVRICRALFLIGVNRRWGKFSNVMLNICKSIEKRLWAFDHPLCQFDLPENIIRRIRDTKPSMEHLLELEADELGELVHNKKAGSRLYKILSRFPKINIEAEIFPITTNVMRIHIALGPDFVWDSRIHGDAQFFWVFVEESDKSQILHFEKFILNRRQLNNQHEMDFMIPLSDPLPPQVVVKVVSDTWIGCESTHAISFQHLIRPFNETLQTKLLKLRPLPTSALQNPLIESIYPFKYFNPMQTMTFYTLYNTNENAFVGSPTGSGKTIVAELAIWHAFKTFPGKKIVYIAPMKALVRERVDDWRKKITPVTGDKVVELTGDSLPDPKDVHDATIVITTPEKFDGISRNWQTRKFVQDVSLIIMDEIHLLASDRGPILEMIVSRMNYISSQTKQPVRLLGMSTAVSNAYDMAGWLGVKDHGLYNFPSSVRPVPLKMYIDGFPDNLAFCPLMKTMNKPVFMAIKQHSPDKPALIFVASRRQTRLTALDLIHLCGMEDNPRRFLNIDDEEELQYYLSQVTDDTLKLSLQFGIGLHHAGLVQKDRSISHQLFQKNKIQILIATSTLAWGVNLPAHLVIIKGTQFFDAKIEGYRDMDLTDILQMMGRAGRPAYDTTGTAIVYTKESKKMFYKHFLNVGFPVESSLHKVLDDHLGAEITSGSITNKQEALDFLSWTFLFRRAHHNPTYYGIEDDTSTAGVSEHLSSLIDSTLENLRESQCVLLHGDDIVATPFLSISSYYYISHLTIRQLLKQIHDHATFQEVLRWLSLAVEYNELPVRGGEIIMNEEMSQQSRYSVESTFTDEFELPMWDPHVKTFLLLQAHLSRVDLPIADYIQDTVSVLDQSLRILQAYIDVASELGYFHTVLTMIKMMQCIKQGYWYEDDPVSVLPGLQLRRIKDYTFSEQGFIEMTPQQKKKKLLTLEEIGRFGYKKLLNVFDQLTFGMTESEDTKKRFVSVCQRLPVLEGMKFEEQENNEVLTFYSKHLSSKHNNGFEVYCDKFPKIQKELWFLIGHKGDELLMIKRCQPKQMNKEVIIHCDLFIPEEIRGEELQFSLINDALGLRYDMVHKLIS
Put plainly: cryo-EM structure; pre-splitting samples: ubiquitinated CGN6-stalled disomes with wild-type RQT, or ubiquitinated CGN12-stalled disomes with K316R-RQT (RQT*), 1 mM ATP, 5 min at 25 °C; RQT seen on the lead ribosome of intact disomes.

Experiment [2] deals with T2, Slh1-K316R, ATPase-deficient Walker A mutant of the N-terminal cassette, subunit of K316R-RQT (yeast, UniProt P53327 1-1967, K316R).
T2 construct: Slh1 (Rqt2) of yeast RQT, 1967 amino acids, with the ATPase-deficient mutation K316R; Probably made and tagged like the wild-type Slh1-FTP; also called K316R-Slh1; source: purified RQT complex (K316R-Slh1 mutant)
T2 sequence (P53327 whole entry K316R): as the sequence (P53327 whole entry, the tested form may be a part, one chain of several) above, with K316R counted along it
The experiment is described as above.

Experiment [3] addresses T1, Ski2-like helicase 1 (Slh1), subunit of …. The experiment in a line: cryo-EM structure; RQT-80S complex in conformation C1 (classical POST state); ubiquitinated CGN12-stalled disomes incubated 5 min at 25 °C with purified wild-type RQT and 1 mM ATP (post-splitting sample), vitrified; 80S refined to 2.4 Å, RQT locally refined to 3.5 Å.

B1: Rqt4, zinc-finger containing subunit of the RQT complex (natural protein, yeast)
chain: MTRKQAIDYAIKQVPQILPLEESDVKALCEQVLSTSSDDPEQIASKFLEFLGHEDLSFEFVMKFNELLNQNDKKEEKKTKNVHLEHTAPTSWKNESKQPTNNYINKKGDEKPKKLKDEKKSSTTRPTVQPSNQSTQSNPIKEKKEHRSKGKLQSLQEIDEAIKMLELRDSGSSKNCNCQGTRHPVFDIAPNCLHCGKVVCVIEGLNKGKCGHCHEQLISDNERTQMVEILNQEKNELNGSSSSLSNASNGANVPKKKTKTYKITSGMGKNLFAEQDKLFDFIERKRERERKRNEVLKLQEEKEESEAKERQASEHDHKAEENPELLAAQERLDRLLYFQDTSAERTKIIDNASDFDMNQEVGLWGSARERALALKKQQRNLRKWEKVEKERNGRREKYVVSMNIGSNGKVTMTEVPKDTENVIAGSDDDISDISDEEDISDLKHIHALKSEINTTKSLENLHLQSKAWDYERDKKQFDRPTYVKKNSDTAQQNRKTEEKAHDMQAYDLKSRVQVDQNADASVEQNILAVL
notes: Rqt4 of yeast RQT; two parts modelled (residues 171-219 and 323-381); PWI-like domain 1-74, helices flanking the zinc finger and the C-terminus not visible
In the case of B1, the binding result in experiment [1] and in experiment [2] was “binds” in each case.

B2: RACK1 (Asc1) of the 40S head (natural protein, UniProt P38011 1-319, looked up)
chain: MASNEVLVLRGTLEGHNGWVTSLATSAGQPNLLLSASRDKTLISWKLTGDDQKFGVPVRSFKGHSHIVQDCTLTADGAYALSASWDKTLRLWDVATGETYQRFVGHKSDVMSVDIDKKASMIISGSRDKTIKVWTIKGQCLATLLGHNDWVSQVRVVPNEKADDDSVTIISAGNDKMVKAWNLNQFQIEADFIGHNSNINTLTASPDGTLIASAGKDGEIMLWNLAAKKAMYTLSAQDEVFSLAFSPNRYWLAAATATGIKVFSLDPQYLVDDLRPEFAGYSKAAEPHAVSLAWSADGQTLFAGYTDNVIRVWQVMTAN
notes: RACK1 (Asc1), protein at the back side of the 40S head of the yeast ribosome; Stood in the assay as part of the whole 80S ribosome; source: endogenous, in ribosomes of a yeast cell-free translation extract; ribosome-nascent chain complexes purified (His-tag Dynabeads, sucrose gradient)
For B2, the binding result in experiment [3] is “binds”.

B3: Cue3 (Rqt3), ubiquitin-binding CUE domain containing subunit of the RQT complex (natural protein, yeast, UniProt P53137 1-624, looked up)
chain: MLSRYNRVIEINGGNADISLPIVKFPPFKLRAQLIEKDPVVWLHLIETYVTYFEYLMQGANVELLDESTLDHLRLFLRTYLHEIADEEGKLLSLGINHDVSEQLYLLKGWIFSLIKKCGLLHLQIFGDSLWNLIKVYVRRNPDSIRGLIDGSLKPRINTQRVQLDKSYQVQQHLKQLIESGKFKRIDLRCVEDLLSAKSMQPNKFAENFFTANWIEILEALWAKGQGRGHKEARELIIISLFSVSADRLLKITKELGISNFETLALYPLLGTMLINEGVHKRLPDLKSKLLFLNLGGLSMDEGDHMSYPTSSGTEVNEEQLSALMELFPQFSKYQLSQTLLAYDNNIELVTNKIFEDPTIIEAFSREPAEEEVEPVSDGDNASFTEELSILDRGDSSKNKELDKKIISEGVPDELRNKTLTRALKLLYEADEDERDDTYDEADVNRSDPSKRIGLQEDEESYDTKDDSNEVRQDHNYHIVEAYLWNLLKEDPKLFERSKRGTKVRKTMKEMTSWSDEKIEGWCRMLERSPTRARLLEKKFMFKGNSKTGKTSYVHNRDSQNDGNVVKEQAKQKKSENIKKHEPQSTEQKKRQHAKNEKRKGARANHNRKKGHDKKLARAGNNAI
notes: Cue3 (Rqt3) of yeast RQT; only the N-terminal helical domain 1-297 modelled; CUE domain 298-360, four-helix bundle 468-541 and C-terminus 542-624 not visible
B3: the binding result in experiment [1] and in experiment [2] was “binds” each time.

B4: ribosomal protein uS3 of the 40S subunit (natural protein, UniProt P05750 1-240, looked up)
chain: MVALISKKRKLVADGVFYAELNEFFTRELAEEGYSGVEVRVTPTKTEVIIRATRTQDVLGENGRRINELTLLVQKRFKYAPGTIVLYAERVQDRGLSAVAQAESMKFKLLNGLAIRRAAYGVVRYVMESGAKGCEVVVSGKLRAARAKAMKFADGFLIHSGQPVNDFIDTATRHVLMRQGVLGIKVKIMRDPAKSRTGPKALPDAVTIIEPKEEEPILAPSVKDYRPAEETEAQAEPVEA
notes: uS3 (Rps3), 40S ribosomal protein of yeast, part of the stalled ribosome; Stood in the assay as part of the whole 80S ribosome or disome, which had been ubiquitinated in vitro with Hel2; source: endogenous, in ribosomes of a yeast cell-free translation extract; ribosome-nascent chain complexes purified (His-tag Dynabeads, sucrose gradient)
For B4, the binding result in experiment [3] is “binds”.

B5: ribosomal protein uS5 of the 40S subunit (natural protein, UniProt P25443 1-254, looked up)
chain: MSAPEAQQQKRGGFGGRNRGRPNRRGPRNTEEKGWVPVTKLGRLVKAGKITTIEEIFLHSLPVKEFQIIDTLLPGLQDEVMNIKPVQKQTRAGQRTRFKAVVVVGDSNGHVGLGIKTAKEVAGAIRAGIIIAKLSVIPIRRGYWGTNLGQPHSLATKTTGKCGSVTVRLIPAPRGSGIVASPAVKKLLQLAGVEDVYTQSNGKTRTLENTLKAAFVAIGNTYGFLTPNLWAEQPLPVSPLDIYSDEASAQKKRF
notes: uS5 (Rps2), 40S ribosomal protein of yeast; its usually flexible N-terminus is seen as extra density; Stood in the assay as part of the whole 80S ribosome; source: endogenous, in ribosomes of a yeast cell-free translation extract; ribosome-nascent chain complexes purified (His-tag Dynabeads, sucrose gradient)
Regarding B5, the binding result in experiment [3] was “binds”.
